Here are results for 84 variants from the RNAGym collection of RNA variant scans (doi:10.1073/pnas.2313332121).

B1: TPR t1 (parent)
chain: GACCAAUCUGCCCUCAGAGCUCGAGAACAUCUUCGGAUGCAGAGGAGGCAGGCUUCGGUGGCGCGAUAGCGCCAACGUCCUCAACCUCCAAUGCAUCCCACCACAUGAUGAUGCCUGAAGAGCCUUGGUUUUUUG

Variants of B1 are the subject of this data set. Nature of the data set: polymerase ribozyme fitness, log enrichment relative to wild type (log ratio); higher = more active; in vitro selection for triplet polymerase activity. In a few lines:
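Frozen incubation at −7 °C formed the core of a single, triplicate in vitro selection round applied to PCR-built, transcribed mutant libraries of each subunit of a heterodimeric triplet polymerase ribozyme. Extended constructs were gel-excised, captured with streptavidin beads and amplified by RT-PCR, and input and output libraries were Illumina-sequenced with a filter of ≥10 input reads and ≥1 read per output. Fitness is the logarithm of genotype enrichment relative to wild-type enrichment, with inverse-variance-weighted replicate averaging, and the logarithm is base 2.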
For G71A U116C G117U, the “polymerase ribozyme fitness (log ratio)” value was -2.83.

Regarding A5C G69A U129A, the “polymerase ribozyme fitness (log ratio)” value was -4.05.

As for C8A G47A C80A U112A, the “polymerase ribozyme fitness (log ratio)” value was -5.77.

As to C12G U14C U59G C73G, the “polymerase ribozyme fitness (log ratio)” value was -2.57.

G39C C70U C101A: the “polymerase ribozyme fitness (log ratio)” value is -2.67.

With C13G G35C G47A C80U A105C G107U G117A, the “polymerase ribozyme fitness (log ratio)” value was -7.66.

For the variant G58C C97U, the “polymerase ribozyme fitness (log ratio)” value was -0.321.

Consider G48U C56A C114G G127C, for which the “polymerase ribozyme fitness (log ratio)” value is -5.92.

In the case of U21C C89A, the “polymerase ribozyme fitness (log ratio)” value is -1.81.

Turning to C15U G17A C40G C64A A90G C94A C104G G120C, the “polymerase ribozyme fitness (log ratio)” value was -7.98.

For C80U C101U A121C, the “polymerase ribozyme fitness (log ratio)” value worked out at 1.19.

As for A18C C64U U130C, the “polymerase ribozyme fitness (log ratio)” value is -2.08.

For A43C C56U C94A G117A, the “polymerase ribozyme fitness (log ratio)” value was -5.97.

Take C82G C99A C101U A119G: the “polymerase ribozyme fitness (log ratio)” value is -6.25.

Take U14A C73A A74C G120A: the “polymerase ribozyme fitness (log ratio)” value was -0.495.

Regarding U21G C73G A83G, the “polymerase ribozyme fitness (log ratio)” value was -3.58.

G52C C114U G127U U133A: the “polymerase ribozyme fitness (log ratio)” value was -6.16.

For the variant C53U G107U, the “polymerase ribozyme fitness (log ratio)” value was -4.06.

For the variant C4G C20G G61U G117A, the “polymerase ribozyme fitness (log ratio)” value is -4.76.

Regarding A41U G60A C80U, the “polymerase ribozyme fitness (log ratio)” value is -3.75.

As to A6G G44C C49G, the “polymerase ribozyme fitness (log ratio)” value was -1.68.

Consider C53G G77C, for which the “polymerase ribozyme fitness (log ratio)” value is -0.807.

Turning to C82G C115A C123A, the “polymerase ribozyme fitness (log ratio)” value is -1.32.

For A50U U112A, the “polymerase ribozyme fitness (log ratio)” value is -0.102.

As for G19A G93U, the “polymerase ribozyme fitness (log ratio)” value is -4.24.

As to G44U A75U U92C, the “polymerase ribozyme fitness (log ratio)” value is -1.34.

On to U78C U92A, for which the “polymerase ribozyme fitness (log ratio)” value was -3.1.

In the case of U7G U32G C73A C98A, the “polymerase ribozyme fitness (log ratio)” value is -4.14.

For the variant U55C G58A, the “polymerase ribozyme fitness (log ratio)” value was 0.121.

Consider C20U G57A, for which the “polymerase ribozyme fitness (log ratio)” value was -1.75.

Regarding G60C C124A, the “polymerase ribozyme fitness (log ratio)” value is 1.07.

Turning to C56U A121U, the “polymerase ribozyme fitness (log ratio)” value amounted to 1.6.

Consider A18G A74C C79U, for which the “polymerase ribozyme fitness (log ratio)” value was -4.7.

Consider C79G C82G U92A A121G, for which the “polymerase ribozyme fitness (log ratio)” value was -5.59.

As for C15A C101G C124G, the “polymerase ribozyme fitness (log ratio)” value stood at 0.0121.

Regarding C15U G52A U59A A118U, the “polymerase ribozyme fitness (log ratio)” value is -2.24.

As to A29U C72U A84C U87C U112C, the “polymerase ribozyme fitness (log ratio)” value was -1.31.

A2G C15U A37U C101G C104A: the “polymerase ribozyme fitness (log ratio)” value is -5.07.

In the case of C28G G110U C124U, the “polymerase ribozyme fitness (log ratio)” value was -0.355.

As for A26U C70U, the “polymerase ribozyme fitness (log ratio)” value is -4.13.

On to G42U G61U C82U G127A U133A, for which the “polymerase ribozyme fitness (log ratio)” value is -3.41.

As for C13G A37G, the “polymerase ribozyme fitness (log ratio)” value was -2.1.

For the variant U33A A37C, the “polymerase ribozyme fitness (log ratio)” value was -4.7.

Regarding C12U C124A, the “polymerase ribozyme fitness (log ratio)” value is 1.8.

As for C82U A108U A121G, the “polymerase ribozyme fitness (log ratio)” value was -4.59.

On to C22G C40G G65U G69A C99A C101A C123U, for which the “polymerase ribozyme fitness (log ratio)” value was -6.38.

As for C8A G110A, the “polymerase ribozyme fitness (log ratio)” value is -0.267.

Turning to C28G U38A C86U, the “polymerase ribozyme fitness (log ratio)” value was -5.02.

For A50U U131A, the “polymerase ribozyme fitness (log ratio)” value is -0.622.

As for C49A C88A G113U A119U G128U, the “polymerase ribozyme fitness (log ratio)” value is -6.41.

As for G10U C11G, the “polymerase ribozyme fitness (log ratio)” value came to 0.195.

As for G52U A105G, the “polymerase ribozyme fitness (log ratio)” value was -3.17.

As to U54G U116A, the “polymerase ribozyme fitness (log ratio)” value was -3.36.

In the case of A41U G113C C115A C124A, the “polymerase ribozyme fitness (log ratio)” value is -5.25.

Regarding A6C U38A C53G, the “polymerase ribozyme fitness (log ratio)” value was -0.826.

A27G C40U G61C: the “polymerase ribozyme fitness (log ratio)” value is -4.06.

As to C28A C56U A121G, the “polymerase ribozyme fitness (log ratio)” value was -2.77.

Take C40A G45U G71C U92A: the “polymerase ribozyme fitness (log ratio)” value is -6.28.

C79U G110U G120C G122A: the “polymerase ribozyme fitness (log ratio)” value was -4.4.

As for G10C G71A U81C A100U, the “polymerase ribozyme fitness (log ratio)” value was -3.62.

Turning to A16U C124U U129G, the “polymerase ribozyme fitness (log ratio)” value was 0.0068.

As for C12A A37U A105G G122A, the “polymerase ribozyme fitness (log ratio)” value was -3.74.

As to G10U C12U C22A C56U U112C, the “polymerase ribozyme fitness (log ratio)” value is -1.17.

A18G C53A C72U C85G: the “polymerase ribozyme fitness (log ratio)” value is -4.61.

Take C11A C56U: the “polymerase ribozyme fitness (log ratio)” value is -1.61.

A26U C62G: the “polymerase ribozyme fitness (log ratio)” value was -4.89.

Consider C11G C64U C115U U130A, for which the “polymerase ribozyme fitness (log ratio)” value is -1.38.

For the variant G69C C98U, the “polymerase ribozyme fitness (log ratio)” value is -1.79.

Take U96G G113C: the “polymerase ribozyme fitness (log ratio)” value was -2.59.

As to C115A G128A U130C, the “polymerase ribozyme fitness (log ratio)” value was -0.444.

Turning to G71A U78A, the “polymerase ribozyme fitness (log ratio)” value was -0.645.

In the case of G69U C70G U109A A111C, the “polymerase ribozyme fitness (log ratio)” value is -5.41.

For U7G C11U C49A C56A G107U C114U, the “polymerase ribozyme fitness (log ratio)” value was -4.37.

In the case of C31G A50C U109G U131A, the “polymerase ribozyme fitness (log ratio)” value is -4.54.

Consider C13U G51A U55A C79G C89A, for which the “polymerase ribozyme fitness (log ratio)” value was -5.95.

For A6C C15U C34A G39C, the “polymerase ribozyme fitness (log ratio)” value is -5.02.

With A29G G35C C98G, the “polymerase ribozyme fitness (log ratio)” value was -3.4.

With C15G C49G U106C C124U, the “polymerase ribozyme fitness (log ratio)” value was -2.11.

For the variant C22G G47A G120U G127U, the “polymerase ribozyme fitness (log ratio)” value was -3.88.

As for U7G C8U C53A U59C C80U, the “polymerase ribozyme fitness (log ratio)” value was -4.87.

On to G57A C62G, for which the “polymerase ribozyme fitness (log ratio)” value was -3.37.

Regarding U21A A37C A46U G77A C89U U131C, the “polymerase ribozyme fitness (log ratio)” value was -5.66.

Turning to G10A U54A A119G, the “polymerase ribozyme fitness (log ratio)” value is 1.

Turning to G42A A46U C76U U96G, the “polymerase ribozyme fitness (log ratio)” value was -4.78.
